Kd data for 3 sequences are collected here from PMC7641318.

The test system of this data set is T1, hADAR2-R2D (Fig. 2C, Fig. S4, Table S4) E488Q (human), P78563-2.
T1 sequence: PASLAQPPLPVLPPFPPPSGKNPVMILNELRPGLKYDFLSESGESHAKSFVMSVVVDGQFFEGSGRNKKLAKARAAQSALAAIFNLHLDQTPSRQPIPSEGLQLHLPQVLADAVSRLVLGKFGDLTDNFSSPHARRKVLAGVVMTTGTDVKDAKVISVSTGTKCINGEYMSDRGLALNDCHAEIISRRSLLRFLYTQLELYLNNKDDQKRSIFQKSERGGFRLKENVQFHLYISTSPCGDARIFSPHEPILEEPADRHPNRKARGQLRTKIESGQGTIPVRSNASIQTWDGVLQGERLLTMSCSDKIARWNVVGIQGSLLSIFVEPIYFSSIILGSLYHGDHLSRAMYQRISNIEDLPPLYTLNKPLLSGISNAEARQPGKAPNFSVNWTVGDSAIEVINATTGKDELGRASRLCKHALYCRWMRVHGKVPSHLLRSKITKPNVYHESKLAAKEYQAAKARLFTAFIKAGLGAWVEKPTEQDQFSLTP
Briefly: EMSA. Particulars: EMSA: 20 mM Tris-HCl pH 7.0, 3.5% glycerol, 0.5% DTT, 60 mM KCl, 20 mM NaCl, 0.1 mM BME, 1.5 mM EDTA, 0.003% NP-40, 160 U/ml RNasin, 100 ug/ml BSA, 1 ug/ml …. Background: In EMSA bound probe runs differently from free probe, usually more slowly.

The mark [1] stands for this setting: N = 8-azanebularine at top position 13.

On to “GCUCGCGAUGCUNGAGGGCUCUG / CAGAGCCCCCCAGCAUCGCGAGC [hGLI1-23 8AN]”, for which the dissociation constant Kd under setting [1] came out at 2.67 nM.

“GCAUAGCUCGCGAUGCUNGAGGGCUCUG / CAGAGCCCCCCAGCAUCGCGAGCUAUGC [hGLI1-28-5' 8AN (5' extended)]” yielded a Kd (N = 8-azanebularine at top position 18) of 1.31 nM.

For the sequence “GCUCGCGAUGCUNGAGGGCUCUGAUAGC / GCUAUCAGAGCCCCCCAGCAUCGCGAGC [hGLI1-28-3' 8AN (3' extended)]”, the Kd under setting [1] worked out at 1.79 nM.

A word on the Kd: it is a measure of binding affinity in units of concentration.
